The text below walks through data of publication doi:10.1101/2025.10.17.683123.

The target of the experiment is HCMV Pr S225M (human cytomegalovirus) (UniProt P16753). Briefly: SEC-MALS; HCMV Pr alone on SEC, eluate into Wyatt Dawn Pro and Optilab; concentration not given.

Substance “HCMV Pr S225M (from UniProt P16753) (enzyme)” gave a stoichiometry N of 2.
